Drawing on US20200407708A1, this text covers percent of protein biotinylated (shifted in the presence of streptavidin) for one substance.

The assay concerns the target streptavidin (UniProt P22629). The experiment in a line: gel shift with streptavidin.
Sequence of UniProt P22629 (P22629 37-163 limits assumed): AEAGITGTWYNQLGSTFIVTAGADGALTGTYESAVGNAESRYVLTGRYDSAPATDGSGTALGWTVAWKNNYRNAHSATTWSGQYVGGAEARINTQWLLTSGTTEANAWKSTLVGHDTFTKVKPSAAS

For the substance biotinylated SpyCatcher002 (S50C), the percent of protein biotinylated (shifted in the presence of streptavidin) amounted to 90%.
